Where a chain is given by its changes, count along the chain named.
T1: MARV Ci67 GPe (Marburg virus, Ci67 strain, UniProt P35254 19-637)
T1 sequence: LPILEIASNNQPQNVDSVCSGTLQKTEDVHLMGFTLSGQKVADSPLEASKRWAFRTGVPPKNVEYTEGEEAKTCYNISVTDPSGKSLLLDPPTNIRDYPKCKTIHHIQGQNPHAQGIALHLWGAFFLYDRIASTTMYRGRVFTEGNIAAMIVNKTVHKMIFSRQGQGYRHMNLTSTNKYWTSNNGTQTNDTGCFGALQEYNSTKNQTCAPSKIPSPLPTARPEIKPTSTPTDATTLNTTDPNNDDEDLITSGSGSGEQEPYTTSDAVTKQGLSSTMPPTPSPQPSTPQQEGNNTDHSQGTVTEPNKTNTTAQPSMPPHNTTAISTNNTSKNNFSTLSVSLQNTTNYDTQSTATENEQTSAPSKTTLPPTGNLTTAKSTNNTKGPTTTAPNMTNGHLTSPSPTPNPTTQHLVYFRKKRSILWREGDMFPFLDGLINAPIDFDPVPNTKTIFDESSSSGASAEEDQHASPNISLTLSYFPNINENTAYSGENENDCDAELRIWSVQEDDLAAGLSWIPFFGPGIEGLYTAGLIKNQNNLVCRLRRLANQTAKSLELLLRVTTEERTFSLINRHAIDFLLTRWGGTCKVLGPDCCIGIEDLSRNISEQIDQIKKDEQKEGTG

T2: MARV Musoke GPe (Marburg virus, Musoke strain, UniProt P35253 19-637)
T2 sequence: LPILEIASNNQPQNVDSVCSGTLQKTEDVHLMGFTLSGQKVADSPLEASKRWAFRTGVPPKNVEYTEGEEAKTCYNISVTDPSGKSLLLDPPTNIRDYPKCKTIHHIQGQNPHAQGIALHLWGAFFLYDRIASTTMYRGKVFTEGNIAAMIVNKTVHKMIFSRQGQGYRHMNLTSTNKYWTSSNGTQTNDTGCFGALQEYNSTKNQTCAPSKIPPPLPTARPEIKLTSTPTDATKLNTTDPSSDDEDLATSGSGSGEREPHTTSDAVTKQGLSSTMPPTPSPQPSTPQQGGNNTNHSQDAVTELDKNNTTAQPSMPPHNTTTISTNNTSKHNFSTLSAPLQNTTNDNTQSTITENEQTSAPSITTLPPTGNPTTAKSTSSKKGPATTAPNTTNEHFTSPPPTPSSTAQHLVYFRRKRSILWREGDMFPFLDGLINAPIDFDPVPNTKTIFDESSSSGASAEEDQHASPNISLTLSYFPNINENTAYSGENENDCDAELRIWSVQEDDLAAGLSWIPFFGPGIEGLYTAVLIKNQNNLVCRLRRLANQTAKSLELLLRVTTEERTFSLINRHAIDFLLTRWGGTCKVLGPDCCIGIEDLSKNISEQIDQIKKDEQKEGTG

T3: MARV Angola GPe (Marburg virus, Angola strain, UniProt Q1PD50 19-637)
T3 sequence: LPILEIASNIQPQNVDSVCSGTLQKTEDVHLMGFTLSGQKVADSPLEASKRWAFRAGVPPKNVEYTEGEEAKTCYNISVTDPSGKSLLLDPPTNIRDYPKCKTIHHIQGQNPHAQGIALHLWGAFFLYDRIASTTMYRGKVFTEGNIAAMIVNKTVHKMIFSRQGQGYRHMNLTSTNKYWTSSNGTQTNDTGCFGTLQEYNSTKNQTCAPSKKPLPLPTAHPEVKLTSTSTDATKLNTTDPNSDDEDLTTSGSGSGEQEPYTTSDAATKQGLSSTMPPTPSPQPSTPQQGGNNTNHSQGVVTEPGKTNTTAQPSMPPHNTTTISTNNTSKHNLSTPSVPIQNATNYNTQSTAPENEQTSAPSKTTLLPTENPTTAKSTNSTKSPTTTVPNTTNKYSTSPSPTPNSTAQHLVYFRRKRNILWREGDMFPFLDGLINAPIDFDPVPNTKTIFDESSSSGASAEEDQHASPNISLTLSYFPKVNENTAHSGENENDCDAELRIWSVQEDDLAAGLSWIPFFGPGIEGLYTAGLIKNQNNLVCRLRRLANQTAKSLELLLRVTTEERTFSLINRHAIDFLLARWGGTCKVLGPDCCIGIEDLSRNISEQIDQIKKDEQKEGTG

B1: CAN30G1 (antibody, V domains shown)
VH: QIQLVQSGPELKKPGETVKISCKASGYTFTNYGMNWVKQAPGKGLKWMGWINTYTGKPTYVDDFKGRFAFSLETSANTAYLQINNLKNEDTATYFCESGGYDEDYWGQGTTLTVSS
VL: ENVLTQSPAIMSASPGEKVTMTCSASSSVTYMHWYQQKSSTSPKLWIYDTSKLASGVPGRFSGSGSGNSYSLTISSMEAEDVATYYCFQGSGYPYTFGGGTKLEIK
B2: CAN30G3 (antibody, V domains shown)
VH: QVQLKESGPGLVAPSQSLSITCTVSGFSLTDYGITWIRQPPGKGLEWLGVIWGGGSAYYNLVLKSRLSISKDNSKSQVFLKMNSLQTDDTAMYYCAKHRTLITTAMDYWGQGISVTVSS
VL: DVLMTQTPLSLPVSLGDQASISCRSSQNIVHSNGNTYLEWYLQKSGQSPKLLIYKVSNRFSGVPDRFSGSGSGTDFTLKISRVEAEDLGVYYCFQGSHFPWTFGGGTKLEIK
B3: CAN30G5 (antibody, V domains shown)
VH: EVQLVESGGGLVQPKGSLKLSCAASGFAFNSYAMHWVCQAPGKGLEWVARIRIKSGNYATSYAGSVTDRFTVSRDDSQNLFYLQMNNLKTEDTAMYYCVREWEGAMDYWGQGTSVTVSS
VL: DIVLTQSPLSLPVSLGDQASISCRSSQSLVHSNGNTYLHWYLQKPGQSPNLLIYKVSNRFSGVPDRFSGSGSGTDFTLKISRVEAEDLGVYFCSQSTHVPWTFGGGTKLEIK
B4: CAN54G2 (antibody, V domains shown)
VH: QVQLQQSGTELVRPGTSVKISCKASGYDFTNFWLGWIKQRPGHGLEWIGDIYPGGDNTYYNEKFKGKVTLTADKSSNTAYMQFSSLTSEDSAVYFCFMILYTLDYWGQGTSVTVSS
VL: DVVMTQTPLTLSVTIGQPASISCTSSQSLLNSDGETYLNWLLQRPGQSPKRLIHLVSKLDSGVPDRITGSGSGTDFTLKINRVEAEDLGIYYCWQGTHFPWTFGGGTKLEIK
B5: CAN30G4 (antibody, V domains shown)
VH: EVKLVESGGGLVKSGGSLKLSCAVSGFTFSTYAMSWVRQIPEKRLEWVATISNGGSYIYYSDSVKGRFTISRDNAKNTLYLQMSSLRSEDTAMYYCARHRESYRYDWFAYWGQGTLVTVSA
VL: B2 VL with N33D, S45P, V56F, F99V, W101P, G105A, I111L
B6: CAN40G1 (antibody, V domains shown)
VH: EVQLQQSGPELVKPGASVKISCRTSGYTFTEYTIHWVKQSRGKSLEWIGGINPNHGGTLYNQKFKVKATLTVDKSSSTAYMELRSLTSEDSAVYYCARFTYDYWGQGTTLTVSS
VL: DIVLTQSPASLAVSLGQRASISCKASQSVDHDGDSYMNWYQQKPGQPPKLLIYATSNLESGIPARFSGSGSGTDFTLNIHPVEEEDAATYYCQQSYEVPLTFGAGTKLELK

biological target: T4, Marburg virus GP (Ravn) (Marburg virus, Ravn strain, UniProt Q1PDC7 19-681); test: cell-based or functional assay

Row | Binder | VSVdG/GP Neutralization
1 | B1 | 5%
2 | B2 | 40%
3 | B3 | 50%
4 | B4 | 40%
5 | B5 | 50%
6 | B6 | 0%

biological target: T4, Marburg virus GP (Ravn); test: cell-based or functional assay; remark: another data set of the same source

Row | Binder | neutralization of mucin containing (full length) MARV GP-pseudotyped VSV
7 | B2 | ~50%
8 | B3 | ~50%
9 | B4 | ~50%

biological target: T1, MARV Ci67 GPe; test: ELISA on coated antigen (FIG. 2)

Row | Binder | binding result
10 | B1 | binds
11 | B2 | no binding
12 | B3 | no binding
13 | B4 | no binding
14 | B5 | binds
15 | B6 | binds

biological target: T2, MARV Musoke GPe; test: ELISA on coated antigen (FIG. 2)

Row | Binder | binding result
16 | B1 | binds
17 | B2 | no binding
18 | B3 | no binding
19 | B4 | no binding
20 | B5 | binds
21 | B6 | binds

biological target: T3, MARV Angola GPe; test: ELISA on coated antigen (FIG. 2)

Row | Binder | binding result
22 | B1 | binds
23 | B2 | no binding
24 | B3 | no binding
25 | B4 | no binding
26 | B5 | binds
27 | B6 | binds

— patent publication US20170065702A1 (CANGENE, published 2017)
